20 sequences from the supplement of paper PMC9170038 can be followed below.

This series has as its system K4 kissing-loop RNA reporter. Description: apparent KD of K4 kissing-loop reporter; higher = weaker reporter binding. The note with it: Eterna round: R107. On the procedure: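 RNA-MaP round R107: designed RNA switches with theophylline, tryptophan, arginine or FMN aptamers are transcribed on-chip within common flanks. They are titrated with a labelled K4 kissing-loop RNA reporter in RNA-MaP buffer (100 mM Tris pH 7.5, 80 mM KCl, 4 mM MgCl2), without ligand or with the indicated ligand. Median apparent KD per design.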

The mark [1] stands for this setting: input ligand: theophylline 20 uM.
Setting [2] is: input ligand: tryptophan 2.4 mM.
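Also: bound reporter read as fluorescence of individual clusters on recovered sequencing chips by microscopy, with normalized cluster intensities fitted with a binding model.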

In the case of “UGAUACCAGACGGCCGCCACUAGGACCGGGAGUGAUGUUCCGAAAAUUAAAUGCUCGGCCGCCACUAGGACCGGGUCUGGUAUCU [TrypBX 28 #DoubleAptamer #SwitchBubble]”, the “apparent KD of K4 kissing-loop reporter” value worked out at 0.478 µM (input ligand: FMN 200 uM); 0.253 µM (input ligand: arginine 13.2 mM); 0.308 µM (input ligand: none); 0.349 µM under setting [1]; 0.128 µM under setting [2].
The like results for “UGAUACCAGACUGAUACCAGCAGUGAUGUUGCUGAUAAGGGUAGAGUCAAAGACUCUACCUGCCCUUGGCAGCAGUCUGGUAUCU [TheoBX 14 #SwitchBubble #StaticStem]” were, in that order, 0.167 µM, 0.146 µM, 0.167 µM, 0.173 µM and 0.156 µM.
The like results for “UGAUACCAGACUGAUACCAGCCACAGAGUCAAAGACUCUGAUAAAGGUACCAGUGAUGUUGGCCCUUGGCAGCAGUCUGGUAUCU [TheoBX 17 #SwitchBubble #StaticStem]” were, in that order, 0.158 µM, 0.126 µM, 0.143 µM, 0.151 µM and 0.141 µM.
The like results for “UGAUACCAGGCGGCCGCCACUCCUACAGGUCAAAGACCUGUAAAGCUGGUUCUCCAGUGAUGUUGGAGGACCGGGCCUGGUAUCU [FiskerMod 29 - Jieux - Exclusion - Tryptophan B]” were, in that order, 0.206 µM, 0.156 µM, 0.179 µM, 0.15 µM and 0.428 µM.
Turning to “UGAUAGGACAGAAGGAGCGGAAGUGAUGUUUCCAAAAGGAAAGGUCGACAAAGUCGACCCUUCCAGGUAGGUCGCUGUCCUAUCU [ArgBX 8 #Palindromic #SwitchBubble #StaticStem]”, the “apparent KD of K4 kissing-loop reporter” value (input ligand: FMN 200 uM) stood at 0.0882 µM; the “apparent KD of K4 kissing-loop reporter” value (input ligand: arginine 13.2 mM) is 0.0905 µM; the “apparent KD of K4 kissing-loop reporter” value (input ligand: none) worked out at 0.0829 µM; the “apparent KD of K4 kissing-loop reporter” value under setting [1] is 0.0849 µM; the “apparent KD of K4 kissing-loop reporter” value under setting [2] came out at 0.0815 µM.
The like results for “UGAUAGGACAGAAGGAGCGGAAUCCUGUCAAAGACAGGAAAAUAAAUAAAAGGAGUGAUGUUCCAGGUAGGUCGCUGUCCUAUCU [ArgBX 19 #SwitchBubble #StaticStem]” were, in that order, 0.271 µM, 0.21 µM, 0.248 µM, 0.243 µM and 0.215 µM.
The like results for “UGAUAGGACAGAAGGAGCGGAAUGCUAGUCAAAGACUAGCAACGUUAAACAGGAGUGAUGUUCCAGGUAGGUCGCUGUCCUAUCU [ArgBX 22 #SwitchBubble #StaticStem]” were, in that order, 0.143 µM, 0.124 µM, 0.135 µM, 0.14 µM and 0.113 µM.
The like results for “UGAUUGAACUGAAGGAGCGGCAAGAGAGAAGGAAAUAUAGUGAUGUUAUAUAAGAGAGAGAGCCAGGUAGGUCGCAGAGGGAGGA [ExArgB.D]” were, in that order, 0.198 µM, 0.113 µM, 0.159 µM, 0.134 µM and 0.151 µM.
On to “UGAUUGCCAGUGAUGUUGGCAUAAACUGAAGGAGCGCGUGAAAACGCAGGUAGGUCGCAGUACCAUGCCAAUUGAUCGAAAGAUC [KL-XArg-A2]”, for which the “apparent KD of K4 kissing-loop reporter” value was 0.143 µM (input ligand: FMN 200 uM); 0.15 µM (input ligand: arginine 13.2 mM); 0.155 µM (input ligand: none); 0.169 µM under setting [1]; 0.141 µM under setting [2].
The like results for “UGAUUGGCAAAAGUAGUGAUGUUACGAAUAUAGGAUAUUAGAGGAAUAAGAAGGAUAAGGGAGAAAUAGGUAAAUUGUUGGUUGG [whbob_SS_FMNA__2th171]” were, in that order, 0.0456 µM, 0.0484 µM, 0.285 µM, 0.15 µM and 0.0703 µM.
The like results for “UGAUUGGCGAAAGUAGUGAUGUUACGAAUAUAGGAUAUUAGAGGAAUAAGAAGGAUAAGGGAGAAAUAGGUAAAUUGUUGGUUGG [whbob_SS_FMNA__2th170]” were, in that order, 0.132 µM, 0.0797 µM, 0.128 µM, 0.126 µM and 0.1 µM.
The like results for “UGCCGCAAGGCGAGCGCUCCCACUCCGGAAGGAGCGCCCGCAAGGGCAGGUAGGUCGCCGGAGUGAUGUUCCGGUGGAGGGCUCG [#2 Exclusion - Arginine A Attempt #25 (Inspired by Omei)]” were, in that order, 0.201 µM, 0.188 µM, 0.174 µM, 0.164 µM and 0.157 µM.
For “UGGAGUUGACGAAAAGUCAACUCCAGAGAAGGAGCGGACGAAAGUCCAGGUAGGUCGCUCACUACCAGUGAUGUUGGUACUUAAA”, the “apparent KD of K4 kissing-loop reporter” value was found to be 0.0684 µM (input ligand: FMN 200 uM); 0.243 µM (input ligand: arginine 13.2 mM); 0.17 µM (input ligand: none); 0.137 µM under setting [1]; 0.139 µM under setting [2].
The like results for “UGGAUAUAGUGAUGUUAUAUAGAGAUGGAUACCAGCGAAGAGAAUUGCCCUUGGCAGCCGAAAGAAGUAUCAUUAGAGAAGAAUG [ExTheophyl.Ah]” were, in that order, 0.254 µM, 0.213 µM, 0.252 µM, 0.261 µM and 0.186 µM.
The like results for “UGGAUAUCGUUUAGUCUGGUGAGCUCAGAUACCAGACUAGCGAUAGUCCCUUGGCAGCUGAUUAUGAUUGAGUGAUGUUCAAUCG [Theo A Ex t9b]” were, in that order, 0.168 µM, 0.143 µM, 0.168 µM, 0.151 µM and 0.157 µM.
The like results for “UGGGAUGUUAAAGGAUAUAGCAGGUGAUAUAAGAAAGUGAGUGAUGUUUAUGUAGAUGAUGAUAUGUUAGAAGGUUAACAAAACG [abcdefghi]” were, in that order, 0.427 µM, 0.258 µM, 0.34 µM, 0.318 µM and 0.282 µM.
“UGGGUGUAGUGAUGUUAUAUAGAGAGUGAUACCAGUUUAGAGAGGAACCCUUGGCAGCAUAGAAGAGUAUCAUUGGAGGAGGAGG [ExTheophyl.Aw]”: the “apparent KD of K4 kissing-loop reporter” value is, setting by setting: (input ligand: FMN 200 uM) 0.677 µM; (input ligand: arginine 13.2 mM) 0.505 µM; (input ligand: none) 0.696 µM; under setting [1], 0.606 µM; under setting [2], 0.433 µM.
For “UGUACCGAGUCAGGAUAUCAUAAUAAAUGCAGUGAUGUUGCAAUAACCAGUACAAAAGUGCUGGAUUGAGAAGGGACUUGGUACU [FmnBS 5 #SwitchBubble #StaticStem]”, the “apparent KD of K4 kissing-loop reporter” value (input ligand: FMN 200 uM) was determined as 0.099 µM; the “apparent KD of K4 kissing-loop reporter” value (input ligand: arginine 13.2 mM) came to 0.126 µM; the “apparent KD of K4 kissing-loop reporter” value (input ligand: none) turned out to be 0.126 µM; the “apparent KD of K4 kissing-loop reporter” value under setting [1] was determined as 0.119 µM; the “apparent KD of K4 kissing-loop reporter” value under setting [2] was determined as 0.112 µM.
As to “UGUACCGAGUCAGGAUAUGGCCGGAAACGGAAUAACCAGUGAUGUUGGAAUAAAUGGCGAAAGCCUCCAGAAGGGACUUGGUACU [FmnBS 18 #SwitchBubble #StaticStem #DoubleMagnetSystem]”, the “apparent KD of K4 kissing-loop reporter” value reads like this: (input ligand: FMN 200 uM) 0.158 µM; (input ligand: arginine 13.2 mM) 0.213 µM; (input ligand: none) 0.211 µM; under setting [1], 0.212 µM; under setting [2], 0.185 µM.
The like results for “UGUACCGAGUCAGGAUAUGGCGUCGAAAGACGAAUCCUAGUGAUGUUAGCGAUCUGCGAAAGCAGUCCAGAAGGGACUUGGUACU [FmnBS 26 C50]” were, in that order, 0.219 µM, 0.338 µM, 0.438 µM, 0.371 µM and 0.29 µM.
